± gives the standard error. Variants at the floor of the assay were thinned out.
B1: glmS ribozyme (parent)
chain: AUAAAAGCGCCAGAACUACAGAAAUGUAGUUGACGAGGAGGAGGUUUAUCGAAUUUUCGGCGGAUGCCUCCAAA

Legend:
Conditions in all cases: with glucosamine-6-phosphate
glucosamine-6-phosphate [1] = variants of: B1; assay: self-cleavage kobs at 640 uM GlcN6P; higher = faster cleavage; RNA array
How it was run: (§1)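 Tiles bearing barcoded ribozyme variants, transcribed in situ by E. coli RNA polymerase on sequenced MiSeq chips, were imaged over ~14 h at 37 °C using a hybridised Cy3 probe. Glucosamine-6-phosphate was supplied at 40 μM to 10 mM in HEPES/KCl/Mg(OAc)2 buffer. kobs came from one- or two-exponential decay fits to normalised per-tile medians, and weighted Michaelis–Menten fits then provided kcat and KM.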

glucosamine-6-phosphate [2] = variants of: B1; assay: self-cleavage kobs at 2500 uM GlcN6P; higher = faster cleavage; RNA array
How it was run: as §1

glucosamine-6-phosphate [3] = variants of: B1; assay: self-cleavage kobs at 10000 uM GlcN6P; higher = faster cleavage; RNA array
How it was run: as §1

Row | Variant | self-cleavage kobs at 640 uM GlcN6P (glucosamine-6-phosphate [1]) | self-cleavage kobs at 2500 uM GlcN6P (glucosamine-6-phosphate [2]) | self-cleavage kobs at 10000 uM GlcN6P (glucosamine-6-phosphate [3])
1 | A36C G38U U49A | < 1e-05 s⁻¹ | < 1e-05 s⁻¹ | –
2 | G41U A42U C61A | < 1e-05 s⁻¹ | < 1e-05 s⁻¹ | –
3 | A42U G43A G51A C68U | < 1e-05 s⁻¹ | – | –
4 | A33U A36C U45C | < 1e-05 s⁻¹ | – | –
5 | G37A A42C C61A | < 1e-05 s⁻¹ | – | –
6 | G35A G43C C68A | < 1e-05 s⁻¹ | < 1e-05 s⁻¹ | –
7 | G38C A42U G63A C68U | < 1e-05 s⁻¹ | – | –
8 | A36G A39C A64U C71G | < 1e-05 s⁻¹ | < 1e-05 s⁻¹ | –
9 | G40U U65G G66A | 9.33e-05 ± 1.9e-05 s⁻¹ | 0.000269 ± 8.2e-05 s⁻¹ | –
10 | G41C G44A C70G | 0.00128 ± 0.00037 s⁻¹ | 0.00311 ± 0.00077 s⁻¹ | –
11 | U45C U46G U57A | < 1e-05 s⁻¹ | – | –
12 | G37U G38U G43A | < 1e-05 s⁻¹ | – | –
13 | C34U G38U U46C U56G G60U | < 1e-05 s⁻¹ | – | –
14 | A39G U45G C71U | 0.00169 ± 0.0004 s⁻¹ | 0.0041 ± 0.0017 s⁻¹ | –
15 | G44A C61A G66A | < 1e-05 s⁻¹ | – | –
16 | G44U U49C G62U | < 1e-05 s⁻¹ | < 1e-05 s⁻¹ | –
17 | G37A A42U G44C G59A | < 1e-05 s⁻¹ | < 1e-05 s⁻¹ | –
18 | G43A G62U C67A | < 1e-05 s⁻¹ | < 1e-05 s⁻¹ | –
19 | A39G A48U U54G | 8.65e-05 ± 1.9e-05 s⁻¹ | 0.000287 ± 7.3e-05 s⁻¹ | –
20 | G35C G41U A64G | < 1e-05 s⁻¹ | – | –
21 | A39G G41A U49C | < 1e-05 s⁻¹ | – | –
22 | A42C U54A U65C | < 1e-05 s⁻¹ | – | –
23 | A39G G62U C70U | < 1e-05 s⁻¹ | < 1e-05 s⁻¹ | –
24 | G41U C50U G60C | < 1e-05 s⁻¹ | – | –

Row | Variant | self-cleavage kobs at 640 uM GlcN6P (glucosamine-6-phosphate [1]) | self-cleavage kobs at 2500 uM GlcN6P (glucosamine-6-phosphate [2]) | self-cleavage kobs at 10000 uM GlcN6P (glucosamine-6-phosphate [3])
25 | A33U G41C A52C A53U A64G U65G C70G | < 1e-05 s⁻¹ | – | –
26 | G40A A52G C71A | 0.000146 ± 2.8e-05 s⁻¹ | 0.000203 ± 7.7e-05 s⁻¹ | –
27 | G40U G41U C68U | < 1e-05 s⁻¹ | < 1e-05 s⁻¹ | –
28 | G40C G44C C61U | < 1e-05 s⁻¹ | < 1e-05 s⁻¹ | –
29 | C34U G38U A42G | < 1e-05 s⁻¹ | < 1e-05 s⁻¹ | –
30 | G35U A42G A48U | < 1e-05 s⁻¹ | – | –
31 | A36U A52G G62C C71A | < 1e-05 s⁻¹ | – | –
32 | A36C G43U G60U | < 1e-05 s⁻¹ | – | –
33 | A33C G35A G44U C70U | < 1e-05 s⁻¹ | – | –
34 | C34G G43C A52G | < 1e-05 s⁻¹ | < 1e-05 s⁻¹ | –
35 | A33U G41C G51U U55A | < 1e-05 s⁻¹ | – | < 1e-05 s⁻¹
36 | A36C A48U U54G G60U G63U A64G | < 1e-05 s⁻¹ | – | –
37 | A33U G35A A39G G44U C61U G62U | < 1e-05 s⁻¹ | < 1e-05 s⁻¹ | –
38 | G37U U55G U69G | 3.09e-05 ± 1.4e-05 s⁻¹ | – | –
39 | G44U C58A G59U | < 1e-05 s⁻¹ | < 1e-05 s⁻¹ | –
40 | G37U G41A G63U A64G | < 1e-05 s⁻¹ | – | –
41 | C34G G37U A39G C58U C61G | 0.00305 ± 0.001 s⁻¹ | – | –
42 | C34G C61U C70G | < 1e-05 s⁻¹ | < 1e-05 s⁻¹ | –
43 | A33C U45G U55C | < 1e-05 s⁻¹ | – | –
44 | G35C G51U A64C | < 1e-05 s⁻¹ | < 1e-05 s⁻¹ | –
45 | A36C G38C G60C U65A | < 1e-05 s⁻¹ | – | –
46 | G35C G60A C71U | < 1e-05 s⁻¹ | – | –
47 | A33G C34U A42G G51U C58U G59C | < 1e-05 s⁻¹ | < 1e-05 s⁻¹ | –
48 | A42U G59C G60A | < 1e-05 s⁻¹ | – | –

Row | Variant | self-cleavage kobs at 640 uM GlcN6P (glucosamine-6-phosphate [1]) | self-cleavage kobs at 2500 uM GlcN6P (glucosamine-6-phosphate [2]) | self-cleavage kobs at 10000 uM GlcN6P (glucosamine-6-phosphate [3])
49 | G44U U54G C68A | < 1e-05 s⁻¹ | – | –
50 | C34A G38U A53G | < 1e-05 s⁻¹ | – | –
51 | C34A G59U G60A G63U | < 1e-05 s⁻¹ | – | –
52 | C34A A42C C61U | < 1e-05 s⁻¹ | < 1e-05 s⁻¹ | –
53 | G37U G38U C68A | 0.00155 ± 0.00045 s⁻¹ | – | –
54 | G38A A42C A64G | < 1e-05 s⁻¹ | < 1e-05 s⁻¹ | –
55 | G44A C50U G63U | < 1e-05 s⁻¹ | – | –
56 | G35C A42C C50U G51U | < 1e-05 s⁻¹ | – | –
57 | G35C G37C A39C G63C | < 1e-05 s⁻¹ | < 1e-05 s⁻¹ | –
58 | C34G G41U G51C C71G | < 1e-05 s⁻¹ | – | –
59 | C34U G40U A53U C58U G60U C61A C68A | < 1e-05 s⁻¹ | – | –
60 | A39U C50G A52U G59U C67G | < 1e-05 s⁻¹ | – | < 1e-05 s⁻¹
61 | G41C G59U C70G | 3.61e-05 ± 1.7e-05 s⁻¹ | 0.000118 ± 3.1e-05 s⁻¹ | 0.000122 ± 2.1e-05 s⁻¹
62 | G37U G44C U47C G63A | < 1e-05 s⁻¹ | < 1e-05 s⁻¹ | –
63 | G44A A53U C67A | 0.00108 ± 0.00027 s⁻¹ | 0.00591 ± 0.0013 s⁻¹ | –
64 | A36C G41U A53G | < 1e-05 s⁻¹ | – | –
65 | U45C U69G | 8.34e-05 ± 3.9e-05 s⁻¹ | – | –
66 | C34A G43U U55G U57G C61A | < 1e-05 s⁻¹ | – | –
67 | A42U G60C C61U | < 1e-05 s⁻¹ | – | –
68 | G35U C61G | < 1e-05 s⁻¹ | – | < 1e-05 s⁻¹
69 | U45C G63U C67U | < 1e-05 s⁻¹ | – | –
70 | A36U G51U U56G G59A G66A | < 1e-05 s⁻¹ | – | –
71 | G40A U65G G66U | 0.00012 ± 2.6e-05 s⁻¹ | 0.000547 ± 0.00026 s⁻¹ | –
72 | G38A G60A | < 1e-05 s⁻¹ | < 1e-05 s⁻¹ | –
